Where a chain is given by its changes, count along the chain named.
T1: human FcγRIIa type R (human, UniProt P12318 36-217)
T1 construct: also called FcgRIIaR; FcγRIIa(R)
T1 chain: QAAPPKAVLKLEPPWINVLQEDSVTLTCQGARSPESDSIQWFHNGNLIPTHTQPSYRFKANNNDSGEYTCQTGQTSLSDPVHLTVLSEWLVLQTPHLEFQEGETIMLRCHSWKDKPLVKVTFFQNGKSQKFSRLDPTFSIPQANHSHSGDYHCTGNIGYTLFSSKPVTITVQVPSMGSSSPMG

T2: human FcγRIIa type H (human, UniProt P12318 36-217)
T2 construct: also called FcgRIIaH; FcγRIIa(H)
T2 sequence: T1 chain with R133H

T3: human FcγRIIb (human, UniProt P31994 43-217, limits assumed)
T3 construct: also called FcgRIIb; FcγIIB
T3 sequence: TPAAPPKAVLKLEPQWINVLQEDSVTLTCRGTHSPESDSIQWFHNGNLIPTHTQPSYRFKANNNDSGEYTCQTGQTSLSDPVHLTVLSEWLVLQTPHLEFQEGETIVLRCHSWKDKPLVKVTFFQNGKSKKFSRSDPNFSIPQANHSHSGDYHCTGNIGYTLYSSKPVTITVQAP

B1: IL6R-BF648/IL6R-L (antibody, human IgG1, name in EU numbering)
heavy: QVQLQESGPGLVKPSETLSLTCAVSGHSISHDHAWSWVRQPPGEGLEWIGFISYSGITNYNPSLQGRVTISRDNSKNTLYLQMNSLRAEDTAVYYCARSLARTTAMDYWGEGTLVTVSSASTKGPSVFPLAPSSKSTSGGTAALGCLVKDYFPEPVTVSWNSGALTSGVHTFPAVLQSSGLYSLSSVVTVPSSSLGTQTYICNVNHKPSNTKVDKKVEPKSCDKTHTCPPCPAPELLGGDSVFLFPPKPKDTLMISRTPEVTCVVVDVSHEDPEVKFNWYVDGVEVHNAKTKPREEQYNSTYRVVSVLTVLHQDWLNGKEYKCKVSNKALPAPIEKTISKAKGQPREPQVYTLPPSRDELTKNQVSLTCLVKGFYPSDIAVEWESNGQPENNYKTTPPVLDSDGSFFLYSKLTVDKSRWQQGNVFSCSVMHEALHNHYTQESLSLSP
light: DIQMTQSPSSLSASVGDRVTITCRASQDISSYLNWYQQKPGKAPKLLIYYTSRLHSGVPSRFSGSGSGTDFTFTISSLQPEDIATYYCQQGNTLPYTFGQGTKVEIK
notes: copies: 2 + 2
B2: IL6R-BP130/IL6R-L (antibody, human IgG1, name in EU numbering)
heavy: QVQLQESGPGLVKPSETLSLTCAVSGHSISHDHAWSWVRQPPGEGLEWIGFISYSGITNYNPSLQGRVTISRDNSKNTLYLQMNSLRAEDTAVYYCARSLARTTAMDYWGEGTLVTVSSASTKGPSVFPLAPSSKSTSGGTAALGCLVKDYFPEPVTVSWNSGALTSGVHTFPAVLQSSGLYSLSSVVTVPSSSLGTQTYICNVNHKPSNTKVDKKVEPKSCDKTHTCPPCPAPDLLGGDSVFLFPPKPKDTLMISRTPEVTCVVVDVSHEDPEVKFNWYVDGVEVHNAKTKPREEQYNSTYRVVSVLTVLHQDWLNGKEYKCKMSNKALPKPIEKTISKAKGQPREPQVYTLPPSRDELTKNQVSLTCLVKGFYPSDIAVEWESNGQPENNYKTTPPVLDSDGSFFLYSKLTVDKSRWQQGNVFSCSVMHEALHNHYTQESLSLSP
light: B1 light
notes: copies: 2 + 2
B3: IL6R-BP131/IL6R-L (antibody, human IgG1, name in EU numbering)
heavy: B2 heavy with G239D, M325V
light: B1 light
notes: copies: 2 + 2
B4: IL6R-BP132/IL6R-L (antibody, human IgG1, name in EU numbering)
heavy: B2 heavy with M325V, K328A
light: B1 light
notes: copies: 2 + 2
B5: IL6R-BP146/IL6R-L (antibody, human IgG1, name in EU numbering)
heavy: B2 heavy with D235E, L236Y, G239D, M325V, K328A, K332A
light: B1 light
notes: copies: 2 + 2
B6: IL6R-BP151/IL6R-L (antibody, human IgG1, name in EU numbering)
heavy: B2 heavy with L236Y, G239D, M325V, K328A, K332R
light: B1 light
notes: the list runs over r36 and r37; copies: 2 + 2
B7: IL6R-BP152/IL6R-L (antibody, human IgG1, name in EU numbering)
heavy: B2 heavy with L236Y, G239D, Y298D, M325V, K328A, K332R
light: B1 light
notes: the list runs over r38 and r39; copies: 2 + 2
B8: IL6R-BP176/IL6R-L (antibody, human IgG1, name in EU numbering)
heavy: B2 heavy with M325V, K328D
light: B1 light
notes: copies: 2 + 2
B9: IL6R-BP178/IL6R-L (antibody, human IgG1, name in EU numbering)
heavy: B2 heavy with G239D, P273G, M325V
light: B1 light
notes: the list runs over r43 and r44; copies: 2 + 2
B10: IL6R-BP181/IL6R-L (antibody, human IgG1, name in EU numbering)
heavy: B2 heavy with P273G, M325V, K328A
light: B1 light
notes: the list runs over r48 and r49; copies: 2 + 2

Assays:
Assay in all cases: SPR (Biacore), FcγR over captured antibody; binding amount divided by that of IL6R-BF648/IL6R-L x 100
human FcγRIIa type R = molecular target: T1, human FcγRIIa type R
Method: (§1) According to the following method, relative binding activities were calculated for the results of analyzing interactions with the respective FcγRs.

human FcγRIa = molecular target: T4, human FcγRIa (human, UniProt P12314 16-292, limits assumed)
T4 construct: also called FcgRIa; FcγRI (CD64)
Method: as §1

human FcγRIIa type H = molecular target: T2, human FcγRIIa type H
Method: as §1

human FcγRIIIa type V = molecular target: T5, human FcγRIIIa type V (human, UniProt P08637 17-208, limits assumed)
T5 construct: also called FcgRIIIaV; FcγRIIIa(V)
Method: as §1

human FcγRIIb = molecular target: T3, human FcγRIIb
Method: as §1

T4 sequence (P12314 16-292 limits assumed): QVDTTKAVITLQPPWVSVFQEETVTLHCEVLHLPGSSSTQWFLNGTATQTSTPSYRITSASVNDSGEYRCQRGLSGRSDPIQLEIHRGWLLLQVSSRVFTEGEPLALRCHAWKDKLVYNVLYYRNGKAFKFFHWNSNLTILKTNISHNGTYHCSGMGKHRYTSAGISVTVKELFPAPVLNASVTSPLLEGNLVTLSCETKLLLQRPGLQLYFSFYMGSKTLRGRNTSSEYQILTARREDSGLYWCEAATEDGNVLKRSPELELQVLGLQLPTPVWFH
T5 sequence (P08637 other isoform, or with tags, fused parts or gaps limits assumed): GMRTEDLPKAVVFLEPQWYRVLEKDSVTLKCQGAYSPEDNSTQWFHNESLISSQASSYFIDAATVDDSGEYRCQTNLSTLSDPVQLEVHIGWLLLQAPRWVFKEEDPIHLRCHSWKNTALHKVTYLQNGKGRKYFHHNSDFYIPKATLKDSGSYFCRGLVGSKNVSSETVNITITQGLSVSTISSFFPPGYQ

Binder	relative binding activity (human FcγRIIa type R)	relative binding activity (human FcγRIa)	relative binding activity (human FcγRIIa type H)	relative binding activity (human FcγRIIIa type V)	relative binding activity (human FcγRIIb)
B1	100 relative (IL6R-BF648/IL6R-L = 100)	100 relative (IL6R-BF648/IL6R-L = 100)	100 relative (IL6R-BF648/IL6R-L = 100)	100 relative (IL6R-BF648/IL6R-L = 100)	100 relative (IL6R-BF648/IL6R-L = 100)
B2	272 relative (IL6R-BF648/IL6R-L = 100)	104 relative (IL6R-BF648/IL6R-L = 100)	224 relative (IL6R-BF648/IL6R-L = 100)	–	–
B3	364 relative (IL6R-BF648/IL6R-L = 100)	33 relative (IL6R-BF648/IL6R-L = 100)	253 relative (IL6R-BF648/IL6R-L = 100)	118 relative (IL6R-BF648/IL6R-L = 100)	–
B4	191 relative (IL6R-BF648/IL6R-L = 100)	–	130 relative (IL6R-BF648/IL6R-L = 100)	120 relative (IL6R-BF648/IL6R-L = 100)	150 relative (IL6R-BF648/IL6R-L = 100)
B5	445 relative (IL6R-BF648/IL6R-L = 100)	–	203 relative (IL6R-BF648/IL6R-L = 100)	–	156 relative (IL6R-BF648/IL6R-L = 100)
B6	705 relative (IL6R-BF648/IL6R-L = 100)	39 relative (IL6R-BF648/IL6R-L = 100)	621 relative (IL6R-BF648/IL6R-L = 100)	221 relative (IL6R-BF648/IL6R-L = 100)	–
B7	638 relative (IL6R-BF648/IL6R-L = 100)	34 relative (IL6R-BF648/IL6R-L = 100)	548 relative (IL6R-BF648/IL6R-L = 100)	–	178 relative (IL6R-BF648/IL6R-L = 100)
B8	201 relative (IL6R-BF648/IL6R-L = 100)	102 relative (IL6R-BF648/IL6R-L = 100)	128 relative (IL6R-BF648/IL6R-L = 100)	–	147 relative (IL6R-BF648/IL6R-L = 100)
B9	653 relative (IL6R-BF648/IL6R-L = 100)	51 relative (IL6R-BF648/IL6R-L = 100)	259 relative (IL6R-BF648/IL6R-L = 100)	–	179 relative (IL6R-BF648/IL6R-L = 100)
B10	362 relative (IL6R-BF648/IL6R-L = 100)	108 relative (IL6R-BF648/IL6R-L = 100)	150 relative (IL6R-BF648/IL6R-L = 100)	122 relative (IL6R-BF648/IL6R-L = 100)	–

From patent publication US20230257470A1 (published 2023)
